What is called Kd is the equilibrium constant for the complex coming apart. A lower Kd goes with higher affinity. Usually EC50 (read off the curve) stands for the concentration needed to bring the measured effect to its halfway point. A low value points to higher potency in that assay. As a reminder, the koff is a measure of how fast the partners let go of each other. A lower koff goes with a long-lived complex. For orientation: kon means a measure of how fast the partners come together. Low readings indicate slow association, high ones fast association.

The source of these data is patent US20250000976A1 (NATIONAL RESEARCH COUNCIL OF CANADA, published 2025).

Numbering of substitutions follows the chain as printed.

In test [1] the target is T1, hBCMA-ECD-FC5VHH (human, UniProt Q02223 1-54, biotinylated in vivo ; biotinylated in vivo on the tag of the carrier part, which is not in the letters).
T1 construct: Made in HEK-293 cells, monomeric SEC fraction; The methods say about 500 RU captured on an SA chip; the results say immobilised on a CM5 chip; also called hBCMA-FC5; human BCMA-ECD; not shown: FC5 VHH carrier, any linker, and the His and biotinylation tags
T1 sequence: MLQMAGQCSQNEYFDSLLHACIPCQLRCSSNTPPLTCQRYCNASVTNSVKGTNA
Nature of the test: SPR, 1:1 binding model. The method, then: For surface Plasmon resonance, 15 selected VHHs were passed though size exclusion columns, Superdex 75 (GE Healthcare), respectively, in 10 mM HEPES, pH 7.4, containing 150 mM NaCl, 3 mM EDTA, monomeric sdAb fractions were collected and protein concentrations were determined by measuring absorbance at 280 nm (A280). Analysis were performed with Biacore T200 instrument (GE Healthcare). All measurements were carried out at 25° C. in 10 mM HEPES, pH 7.4, containing 150 mM NaCl, 3 mM EDTA and 0.005% surfactant P20 (GE Healthcare). Approximately 500 RUs of the recombinant monomeric BCMA-ECD (obtained after SEC purification of the BCMA-ECD-FC5VHH) were captured on SA sensor chip (GE Healthcare) at a flow rate of 5 uL/min. Various concentration of the monomeric VHHs (20-500 nM) were injected over BCMA-ECD surface, respectively using an SA surface as a reference at a flow rate of 40 μL/min. Surfaces were generated by washing with running buffer. Data were analysed with BIAevaluation 4.1 software.
The monomeric fraction of all 15 VHHs were used for SPR experiment where the human BCMA-ECD or mouse BCMA was immobilized onto the CM5 dextran chip and various VHH concentration (20-500 nM) were passed over the sensor chip.

Test [2] deals with T2, BCMA_B6x Met1_Ala43 (human, UniProt Q02223).
T2 construct: limits given in the sample name
T2 yeast-displayed fusion (looked up): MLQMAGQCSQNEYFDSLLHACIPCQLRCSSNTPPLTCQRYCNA
Nature of the test: yeast cell ELISA, sample BCMA_B6x Met1_Ala43. The method, then:
(§1) The YSD vector (pPNL6) was from The Pacific Northwest National Laboratory, USA. […] The HRP activity was assayed with substrate TMB (tetramethyl benzidine) according to the manufacture's conditions and read at OD₄₅₀.
(§2) The assays were performed as described in the Materials and Method, and OD₄₅₀ was measured. Note that OD₄₅₀ reads equal or less than 0.100 were scored as zero for clarity.
In general terms: An ELISA detects its analyte on a solid surface through an enzyme-linked reagent.

Test [3] deals with T3, BCMA_B7x Met1_Tyr40 (human, UniProt Q02223).
T3 construct: limits given in the sample name
T3 yeast-displayed fusion (looked up): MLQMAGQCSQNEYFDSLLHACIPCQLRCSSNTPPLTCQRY
Nature of the test: yeast cell ELISA, sample BCMA_B7x Met1_Tyr40. The method, then: as §1, §2

Test [4] addresses T4, BCMA_B4x Arg27_Ala54 (human, UniProt Q02223).
T4 construct: limits given in the sample name
T4 yeast-displayed fusion (looked up): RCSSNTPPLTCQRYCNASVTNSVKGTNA
In words: yeast cell ELISA, sample BCMA_B4x Arg27_Ala54. The method, then: as §1, §2

Test [5] addresses T5, BCMA_B5x Gln38_Ala54 (human, UniProt Q02223).
T5 construct: limits given in the sample name
T5 yeast-displayed fusion (looked up): QRYCNASVTNSVKGTNA
In words: yeast cell ELISA, sample BCMA_B5x Gln38_Ala54. The method, then:
as §1, §2

Test [6] has as its target T6, BCMA_B17x Ile22_Tyr40 (human, UniProt Q02223).
T6 construct: limits given in the sample name
T6 yeast-displayed fusion (looked up): IPCQLRCSSNTPPLTCQRY
In words: yeast cell ELISA, sample BCMA_B17x Ile22_Tyr40. The method, then: as §1, §2

The target in test [7] is T7, BCMA_B13x Gly6 (C8S)_Pro23 (human, UniProt Q02223).
T7 construct: limits and substitution as printed in the sample name
T7 yeast-displayed fusion (looked up): GQSSQNEYFDSLLHACIP
Nature of the test: yeast cell ELISA, sample BCMA_B13x Gly6 (C8S)_Pro23. The method, then:
as §1, §2

Test [8] deals with T8, BCMA_B16x Ile22_Ala43 (C41S) (human, UniProt Q02223).
T8 construct: limits and substitution as printed in the sample name
T8 yeast-displayed fusion (looked up): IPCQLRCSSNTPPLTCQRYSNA
In words: yeast cell ELISA, sample BCMA_B16x Ile22_Ala43 (C41S). The method, then: as §1, §2

The target in test [9] is T9, BCMA_B18x Ile22_Tyr40 (C37S) (human, UniProt Q02223).
T9 construct: limits and substitution as printed in the sample name
T9 yeast-displayed fusion (looked up): IPCQLRCSSNTPPLTSQRY
Nature of the test: yeast cell ELISA, sample BCMA_B18x Ile22_Tyr40 (C37S). The method, then:
as §1, §2

Test [10] concerns the target T10, BCMA_B20x Arg27_Ala43 (C41S) (human, UniProt Q02223).
T10 construct: limits and substitution as printed in the sample name
T10 yeast-displayed fusion (looked up): RCSSNTPPLTCQRYSNA
Nature of the test: yeast cell ELISA, sample BCMA_B20x Arg27_Ala43 (C41S). The method, then:
as §1, §2

Test [11] concerns the target T11, human BCMA on target cells (Raji, Ramos, Jeko-1, RPMI8226) (human, UniProt Q02223 1-184).
T11 construct: also called TNFRSF17; BCMA-positive target cells
T11 sequence: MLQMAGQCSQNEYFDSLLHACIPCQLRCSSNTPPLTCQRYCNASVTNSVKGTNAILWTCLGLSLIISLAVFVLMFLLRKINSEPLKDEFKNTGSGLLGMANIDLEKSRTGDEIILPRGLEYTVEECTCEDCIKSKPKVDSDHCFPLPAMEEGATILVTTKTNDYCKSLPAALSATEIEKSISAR
In words: flow cytometry on RPMI8226 cells (BCMA-high); VHH detected with AlexaFluor647 anti-VHH antibodies. The method, then: Purified VHH were used to assess the target specificity of the sdBCMA Ab by flow cytometry. The highly BCMA expressing human myeloma cell line RPM18226, the BCMA-low human Burkitt's lymphoma cell line Raji, and the BCMA-negative Jurkat human T cell leukemia cell line were incubated with 5 fold dilution of biotin labelled sdBCMA VHH from 7.5-0.06 μg/mL. The binding of the BCMA-targeted VHH to cell surface BCMA was detected by flow cytometry using a mixture of two broad reactivity mouse anti-VHH antibodies conjugated with AlexaFluor647.
A general note: Flow cytometry measures light scatter and fluorescence of single cells or particles in a stream.

Test [12] concerns the target T12, mBCMA-ECD-FC5VHH (mouse, UniProt O88472 1-49, biotinylated in vivo ; biotinylated in vivo on the tag of the carrier part, which is not in the letters).
T12 construct: also called mouse BCMA; murine BCMA ECD; not shown: FC5 VHH carrier, any linker, and the His and biotinylation tags
In words: SPR (Biacore T200), VHH over mouse BCMA-ECD surface, 25 C. For orientation: SPR reads the build-up and loss of mass on a sensor chip optically.

T12 sequence (O88472 1-49 limits assumed): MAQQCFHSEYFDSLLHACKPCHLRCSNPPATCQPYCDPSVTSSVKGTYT

B1: hBCMA-A6 (VHH)
VHH: QVQLVESGGGLVQPGGSLRLSCVASGSIFDAYNMGWYRQAPGKQRELVAAISSAGTTFYRDSVKGRFTVSRNNAKNTMYLQMDRLRPEDTAVYDCNGAPWGDAPVKVEDWGQGTQVTVSS
modifications: single biotin on the C-terminal AviTag
notes: also called VHH-A6; not shown: C-terminal His tag and AviTag biotinylation signal from pMRO vector
In test [1], B1 registered a Kd of 4 nM. The OD450 in test [2] turned out to be 2.8; in test [3], 1.84. The binding result in [4], in [5], in test [6], in [7], in test [8] and in test [9] was “no binding” in each case. Further, the binding result in test [10] was “no binding”.

B2: hBCMA-H2 (VHH)
VHH: QVKAEESGGGLVRPGDSLRLTCTISGRTSNNFVMAWFRRTPGKEREYVATRVWSGSTPYYHDSVKGRFTISIDDDKNTAYLQMNSLKPEDTAVYYCAATKDIMSRSYDYWGLGTQVTVSS
modifications: single biotin on the C-terminal AviTag
notes: also called VHH-H2; not shown: C-terminal His tag and AviTag biotinylation signal from pMRO vector
As to B2, the OD450 in [2] was found to be 2.41; in test [3], 3.02. For the same molecule, the binding result in test [4], in test [5], in test [6], in test [7], in test [8] and in test [9] was “no binding” each time. Further, the binding result in test [10] is listed as “no binding”.

B3: hBCMA-H4 (VHH)
VHH: QVQLVESGGGLVQPGGSLRLSCAASGDSFGAYAMGWYRQAPGKQRELVAAISSAGNTFYRDSVKGRFTVSRNNAKNAMYLQMDRLKPEDTAVYQCNGAPWADEPVKVWNWGLGTQVTVSS
modifications: single biotin on the C-terminal AviTag
notes: also called VHH-H4; not shown: C-terminal His tag and AviTag biotinylation signal from pMRO vector
In the case of B3, the figures for the OD450 in test [2] and in test [3] were 2.62 and 1.39, respectively. Besides, the binding result in [4], in test [5], in test [6], in [7], in test [8] and in test [9] was “no binding” each time. The binding result in test [10] was “no binding”.

B4: hBCMA-VcMRo8(VF7/VF8) (VHH)
VHH: QVQLVESGGGLVQPGGSLRLSCAASGTIFSRNALAWFRQAPGKQRELVAHITIGGTTVYKDSVKGRFTISRDNAKNTVYLQMDALKPEDTAVYYCNADPEGSWNWVRRGDYWGQGTQVTVS
modifications: single biotin on the C-terminal AviTag
notes: also called V8; hBCMA-V8; not shown: C-terminal His tag and AviTag biotinylation signal from pMRO vector
Consider B4, for which the OD450 was determined as 2.33 in [2] and 2.37 in test [3]. Moreover, the binding result in [4], in test [5], in [6], in test [7], in test [8] and in [9] was “no binding” each time. Moreover, in test [10], the binding result was “no binding”.

B5: hBCMA-VcMRo3 (V3) (VHH)
VHH: EVQLEQSGGGLVQTGDSLRLTCTIPGRASNHFVMAWFRRAPGKEREFVATRVWSGGSPYYSDSVKGRFAIAIDNAKNTAYLQMNSLKPEDTAVYYCAATKDIMSRSYDYWGLGTQVTVSS
modifications: single biotin on the C-terminal AviTag
notes: also called hBCMA-V3; not shown: C-terminal His tag and AviTag biotinylation signal from pMRO vector
On to B5, for which the OD450 in test [2] was 2.65; in test [3], 1.62. The binding result in [4], in [5], in test [6], in test [8], in test [9] and in test [10] was “no binding” each time. Moreover, the “EC50 (read off the curve)” value in test [11] is about 2 nM.

B6: hBCMA-E7 (VHH)
VHH: B5 VHH with E1Q, E5V, Q6E, T21A, P25S, S29T, N30D, F47Y, S61L, S85N
modifications: single biotin on the C-terminal AviTag
notes: Llama VHH made in E. coli BL21(DE3), IMAC purified, monomeric SEC fraction used; also called VHH-E7; VHH # 1-B1; not shown: C-terminal His tag and AviTag biotinylation signal from pMRO vector
Regarding B6, the Kd turned out to be 0.0462 nM in test [1] and 67.5 nM in test [12]. Moreover, the figures for the OD450 in [2] and in test [3] were 2.19 and 2.64, respectively. The binding result in test [4], in [5], in [6], in [8], in test [9] and in test [10] was “no binding” in each case. In test [12], this molecule returned a koff of 0.0514 s⁻¹. This molecule also registered a kon in test [12] of 762000 M⁻¹ s⁻¹. Moreover, in [11], the half-maximal effective concentration (EC50 (read off the curve)) is about 0.9 nM.
